Data from the supplement of paper PMC10567573.

B1: STX11 (parent)
chain: FQRAMHDYNQAEMKQRDNCKIRIQ
B2: CDC14A (parent)
chain: LWVQGDIFRSKLKNRPSSEGSINK

Variants of: B1
Assay: protein stability index of a GFP-peptide fusion (GPS, HEK-293T) (PSI 1-6); higher = more stable
Conditions: c terminus: a fixed tail appended
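Also: lentivirally expressed fusions sorted by FACS into six bins by GFP to DsRed ratio, PSI derived from sequencing read proportions per bin multiplied by bin number.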

Protein stability index of substitutions, site by site:
N9: W 1.74 | L 2.74 | F 1.83 | K 2.29 | Q 2.64 | H 2.93 | S 2.91 | V 2 | I 2.25 | T 2.79 | G 2.33 | P 3.11 | M 1.7 | R 4.08 | Y 1.74 | E 2.94
K14: S 2.48 | L 2.44 | A 2.98 | W 2.86 | M 2.82 | T 2.69 | R 2.18 | Q 2.4 | V 2.48 | E 3.93 | I 2.3 | D 3.08 | G 3.11 | Y 2.14 | F 2.91 | P 2.85 | H 2.57 | C 3.08 | N 2.94
K20: L 3.26 | D 3.11 | V 2.14 | G 2.35 | W 1.6 | E 2.74 | S 3.15 | Q 2.75 | P 2.37 | A 2.32 | T 2.47 | I 1.3 | M 2.46 | R 2.37 | H 3.21 | N 2.83 | F 1.69 | Y 1.41 | C 2.23
R16: W 2.43 | A 3.04 | K 2.81 | S 2.41 | C 2.48 | Q 3.29 | I 2.34 | M 2.46 | F 2.28 | V 2.63 | H 2.73 | E 3.04 | P 2.87 | G 3.37 | D 3.28 | L 3.07 | N 2.7 | T 2.67 | Y 2.65
I23: W 2.83 | G 3.25 | Y 2.98 | H 2.8 | A 3.51 | V 2.85 | K 2.93 | C 2.9 | P 3.24 | F 2.5 | E 3.53 | M 2.99 | D 3.38 | Q 3.52 | L 2.87 | N 3.78 | S 2.66 | R 2.74 | T 3.19
E12: I 2.44 | D 2.5 | T 2.62 | N 2.29 | L 2.42 | W 2.39 | Q 2.31 | P 2.02 | C 2.11 | G 2.05 | H 2.14 | K 2.31 | V 2.52 | F 2.29 | R 2.83 | Y 1.67 | S 2.23 | A 2.32 | M 1.6
R22: W 1.74 | L 2.53 | Q 2.9 | Y 2.59 | F 2.04 | I 2.58 | P 3.02 | M 2.8 | C 2.37 | A 2.61 | V 2.6 | S 3.44 | T 2.54 | E 2.67 | H 2.49 | N 2.61 | K 2.42 | G 2.57 | D 3.13
I21: V 1.92 | K 2.68 | G 3.08 | L 2.29 | T 3.17 | H 2.76 | Q 3.04 | P 2.9 | D 3.86 | A 3.01 | S 3.5 | F 2.34 | W 3.17 | C 2.36 | Y 2.93 | M 3.12 | N 2.98 | R 3.56 | E 2.92
C19: G 3.06 | T 3.04 | Y 2.61 | F 1.85 | K 3.38 | E 3.06 | S 3.27 | R 2.59 | M 2.85 | N 3.7 | D 2.85 | Q 2.77 | H 4.44 | L 2.54 | W 2.35 | V 2.96 | A 2.98 | P 3.71 | I 2.55
D17: L 2.1 | G 2.36 | T 1.98 | I 1.8 | K 1.98 | Q 2.63 | H 2.15 | E 2.81 | S 1.78 | C 2.09 | M 2 | F 1.16 | P 2.97 | A 2.28 | Y 1.89 | R 1.82 | V 2.73 | N 2.28 | W 1.68
M13: L 2.35 | C 2.49 | Y 2.62 | Q 2.62 | G 3.49 | I 2.85 | D 3.71 | H 2.65 | P 3.11 | V 2.52 | T 2.79 | A 2.95 | N 3.5 | W 2.5 | F 2.5 | K 1.98 | S 3.03 | R 2.1 | E 2.49
Q15: W 3.09 | H 2.57 | K 2.15 | N 2.86 | Y 3.08 | T 3.18 | F 2.01 | R 2.64 | A 2.23 | G 2.45 | E 3.2 | C 2.29 | L 2.32 | V 2.56 | M 1.86 | S 2.71 | I 2.17 | P 2.85 | D 2.74
N18: Q 2.5 | S 2.48 | M 2.59 | A 2.53 | I 2.41 | H 2.02 | R 2.44 | F 2.36 | G 2.41 | E 3.11 | K 2.56 | P 2.91 | C 2.3 | W 2.17 | V 2.17 | L 2.48 | Y 2.17 | T 3.21 | D 2.88
Q24: L 3.09 | V 2.42 | P 2.83 | E 3.17 | I 2.36 | A 2.62 | S 2.27 | C 2.3 | H 2.74 | T 2.77 | Y 2.05 | F 2.17 | M 2.69 | N 2.95 | G 2.75 | R 2.33 | W 1.6 | K 2.87 | D 2.81
Q10: D 2.59 | K 2.73 | L 2.36 | P 2.01 | C 1.87 | I 2.31 | Y 2.17 | W 1.73 | S 3.35 | T 2.39 | H 2.16 | V 2.67 | N 2.63 | E 2.74 | G 2.45 | R 2.06 | A 3.1 | M 1.92 | F 1.81
A11: D 3.02 | Y 3.24 | E 3.22 | G 3.09 | S 2.75 | K 2.6 | W 2.49 | P 3.19 | I 1.68 | R 2.79 | T 2.43 | F 2.46 | H 2.58 | C 2.29 | N 2.44 | V 2.79 | M 2.02 | Q 2.42 | L 3.27

Variants of: B2
Assay: as above
Conditions: c terminus: a fixed tail appended

Protein stability index, by site and new letter:
L1: I 2.17 | N 4.3 | K 3.49 | Y 2.43 | S 4.05 | Q 2.79 | H 3.37 | V 2.2 | R 4.17 | W 2.3 | G 3.03 | M 2.79 | F 1.75 | A 3.37 | E 4.43 | P 3.75 | C 3.69 | T 4.24 | D 4.57
W2: G 4.04 | D 4.4 | F 3.07 | E 5.28 | N 4.07 | L 2.98 | A 4.05 | P 4.26 | C 3.8 | Q 4.28 | K 3.74 | I 2.51 | H 3.81 | M 3.48
